Legend:
Assay in all cases: Biacore
[1] = molecular target: T1, Mouse FGFR3b.mmh (REGN3215) (UniProt Q61851 21-801)
T1 chain: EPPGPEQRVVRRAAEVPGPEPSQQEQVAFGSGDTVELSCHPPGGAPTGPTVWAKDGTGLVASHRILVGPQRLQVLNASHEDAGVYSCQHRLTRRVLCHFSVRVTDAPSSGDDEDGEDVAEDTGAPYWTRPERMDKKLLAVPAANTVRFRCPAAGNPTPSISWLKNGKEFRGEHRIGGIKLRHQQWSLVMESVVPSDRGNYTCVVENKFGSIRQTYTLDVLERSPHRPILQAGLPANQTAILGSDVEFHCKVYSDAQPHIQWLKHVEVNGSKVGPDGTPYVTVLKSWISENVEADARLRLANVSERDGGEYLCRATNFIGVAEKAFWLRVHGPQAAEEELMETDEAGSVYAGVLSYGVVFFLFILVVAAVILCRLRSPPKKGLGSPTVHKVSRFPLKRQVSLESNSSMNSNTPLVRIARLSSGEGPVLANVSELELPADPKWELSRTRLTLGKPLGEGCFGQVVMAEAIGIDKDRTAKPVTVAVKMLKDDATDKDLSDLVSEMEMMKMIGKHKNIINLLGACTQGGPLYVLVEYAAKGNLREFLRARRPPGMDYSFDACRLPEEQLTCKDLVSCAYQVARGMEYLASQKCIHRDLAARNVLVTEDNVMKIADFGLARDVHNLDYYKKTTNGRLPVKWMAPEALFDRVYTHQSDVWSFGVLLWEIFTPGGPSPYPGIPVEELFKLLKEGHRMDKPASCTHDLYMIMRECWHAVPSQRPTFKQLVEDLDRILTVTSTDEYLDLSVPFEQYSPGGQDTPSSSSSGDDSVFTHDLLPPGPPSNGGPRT

[2] = molecular target: T2, Human FGFR3b.mmh (REGN3152) (UniProt P22607 23-806)
T2 chain: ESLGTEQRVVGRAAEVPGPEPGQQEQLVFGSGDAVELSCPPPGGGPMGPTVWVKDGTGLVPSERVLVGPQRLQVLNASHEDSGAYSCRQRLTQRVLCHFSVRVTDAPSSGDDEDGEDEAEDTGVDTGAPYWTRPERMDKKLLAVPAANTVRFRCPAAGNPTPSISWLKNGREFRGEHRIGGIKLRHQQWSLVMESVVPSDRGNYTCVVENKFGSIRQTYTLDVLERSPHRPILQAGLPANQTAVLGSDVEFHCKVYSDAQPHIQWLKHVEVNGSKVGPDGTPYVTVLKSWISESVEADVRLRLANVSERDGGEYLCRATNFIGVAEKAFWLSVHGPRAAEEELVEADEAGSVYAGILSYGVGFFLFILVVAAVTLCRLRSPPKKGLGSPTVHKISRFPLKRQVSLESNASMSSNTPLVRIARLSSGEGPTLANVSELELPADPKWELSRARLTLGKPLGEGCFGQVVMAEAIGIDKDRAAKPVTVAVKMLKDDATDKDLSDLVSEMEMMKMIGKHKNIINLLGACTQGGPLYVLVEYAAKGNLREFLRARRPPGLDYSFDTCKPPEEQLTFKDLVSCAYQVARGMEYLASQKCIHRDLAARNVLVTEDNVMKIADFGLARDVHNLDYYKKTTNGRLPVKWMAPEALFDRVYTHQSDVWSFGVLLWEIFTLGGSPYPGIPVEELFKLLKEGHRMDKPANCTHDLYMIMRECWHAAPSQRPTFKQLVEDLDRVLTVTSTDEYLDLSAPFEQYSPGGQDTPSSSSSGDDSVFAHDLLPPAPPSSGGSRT

[3] = molecular target: T3, Mouse FGFR3b (UniProt Q61851 21-801)
T3 chain: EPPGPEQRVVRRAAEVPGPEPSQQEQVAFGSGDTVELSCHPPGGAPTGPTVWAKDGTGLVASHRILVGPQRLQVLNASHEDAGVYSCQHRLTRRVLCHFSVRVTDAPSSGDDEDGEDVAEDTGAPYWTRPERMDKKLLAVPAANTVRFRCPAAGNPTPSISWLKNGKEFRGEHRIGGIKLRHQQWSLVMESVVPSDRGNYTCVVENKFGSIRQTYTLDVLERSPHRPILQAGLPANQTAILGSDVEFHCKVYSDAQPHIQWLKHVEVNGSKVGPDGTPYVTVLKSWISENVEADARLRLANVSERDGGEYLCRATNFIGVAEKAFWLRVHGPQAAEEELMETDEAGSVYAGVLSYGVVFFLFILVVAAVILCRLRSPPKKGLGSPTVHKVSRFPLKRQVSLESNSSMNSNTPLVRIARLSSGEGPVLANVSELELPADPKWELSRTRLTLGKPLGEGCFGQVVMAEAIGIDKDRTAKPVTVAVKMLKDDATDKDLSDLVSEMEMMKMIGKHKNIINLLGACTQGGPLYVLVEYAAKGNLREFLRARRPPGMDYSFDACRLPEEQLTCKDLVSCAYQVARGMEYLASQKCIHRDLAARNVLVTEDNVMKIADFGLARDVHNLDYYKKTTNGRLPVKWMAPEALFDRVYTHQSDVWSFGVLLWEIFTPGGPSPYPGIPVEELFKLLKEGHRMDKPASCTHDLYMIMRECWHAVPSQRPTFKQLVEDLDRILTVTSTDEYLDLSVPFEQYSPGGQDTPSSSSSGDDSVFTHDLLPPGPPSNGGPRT

[4] = molecular target: T4, Human FGFR3b (UniProt P22607 23-806)
T4 chain: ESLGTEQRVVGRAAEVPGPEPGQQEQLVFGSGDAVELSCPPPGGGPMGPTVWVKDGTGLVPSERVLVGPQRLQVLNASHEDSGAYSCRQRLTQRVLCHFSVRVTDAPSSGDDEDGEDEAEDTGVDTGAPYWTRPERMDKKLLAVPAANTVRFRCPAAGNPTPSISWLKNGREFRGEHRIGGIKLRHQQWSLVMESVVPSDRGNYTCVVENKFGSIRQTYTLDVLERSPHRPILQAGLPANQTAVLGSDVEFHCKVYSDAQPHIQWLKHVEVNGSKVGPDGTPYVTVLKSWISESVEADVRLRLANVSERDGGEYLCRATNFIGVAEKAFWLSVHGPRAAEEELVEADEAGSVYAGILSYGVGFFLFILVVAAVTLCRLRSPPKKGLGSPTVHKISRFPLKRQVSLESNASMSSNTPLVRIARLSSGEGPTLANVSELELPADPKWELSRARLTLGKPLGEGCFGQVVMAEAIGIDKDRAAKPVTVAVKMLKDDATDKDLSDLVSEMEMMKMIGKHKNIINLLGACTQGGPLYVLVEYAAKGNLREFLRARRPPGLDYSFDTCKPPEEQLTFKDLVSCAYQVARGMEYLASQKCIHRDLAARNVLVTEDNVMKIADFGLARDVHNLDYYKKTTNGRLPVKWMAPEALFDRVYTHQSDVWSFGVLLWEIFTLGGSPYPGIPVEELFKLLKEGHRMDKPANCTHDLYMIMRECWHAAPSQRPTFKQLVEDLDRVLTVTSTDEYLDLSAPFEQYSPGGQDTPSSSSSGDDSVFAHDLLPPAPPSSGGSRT

B1: mAb063 (antibody, V domains shown)
VH: QVQLQESGPGLVKPSETLSLTCTVSGDSINSYFWSWIRQLPGKELEWIGHIYSSGSTRYNPSLQSRVTISIDTSKNQFSLKLSSVTAADTAVYYCARGASAVDYWGQGTLVTVSS
VL: EIVLTQSPGTLSLSPGERATLSCRTSQSISSGYLAWYQQKPGQAPRLLIYGASRRATGIPDRFSGSGSGTDFTLTISRLEPEDFVVYYCQQYGSSPYTFGQGTKLEIKR
Binder B1 has a Kd [1] of 1.4 nM, a Kd [2] of 2.59 nM and a Kd [3] of 1.4 nM. For the same binder, the Kd [4] was 2.59 nM.

Source: patent US20240247069A1 (published 2024)
